Reference: patent US20130059388

Experiments:
[1] = test system: MAPRE3 ZFN of pair 31/32 (first) (synthetic); experiment: cell_activity; conditions: Cel-1 efficiency of ZFN pair 31/32; no productive tag integration
[2] = test system: MAPRE3 ZFN of pair 31/32 (second) (synthetic); experiment: cell_activity; conditions: Cel-1 efficiency of ZFN pair 31/32; no productive tag integration

Sequence: TTCCTCTCTCTCCCAC (double strand) [MAPRE3 half-site 1]
- activity [1]: 21%

Sequence: AGGAAGGATTCGCAC (double strand) [MAPRE3 half-site 2]
- activity [2]: 21%
